# Source: publication PMC4208696 (Biophysical chemistry, 2014)
# Where two headings read alike, the source gives them in different places.
# Key:
# Experiment in all cases: fluorescence polarisation
# [1] = molecular target: T1, full-length mammalian calmodulin (CaM_(1–148)) (mammalian (no species named), UniProt P0DP23 1-149)
# [2] = molecular target: T2, CaM C-domain fragment, residues 76 to 148 (CaM_(76–148)) (mammalian (no species named), UniProt P0DP23 77-149)
# [3] = molecular target: T3, CaM N-domain fragment, residues 1 to 80 (CaM_(1–80)) (mammalian (no species named), UniProt P0DP23 2-81)
# [4] = molecular target: T1, full-length mammalian calmodulin …; remark: listed apart in the source
# [5] = molecular target: T2, CaM C-domain fragment, residues 76 to …; remark: listed apart in the source
# [6] = molecular target: T3, CaM N-domain fragment, residues 1 to 80 …; remark: listed apart in the source
Binder,Kd [1],Kd [2],Kd [3],Kd [4],Kd [5],Kd [6]
"{5,6‑carboxyfluorescein}-KSKKAVWHKLLSKQRRRAVVACFRMTPLYN-NH2 [Fl–hRyR1(3614–3643)p: hRyR1(3614–3643)p with a 5,6-carboxyfluorescein moiety at the N-terminus]",≤ 0.001 µM,≤ 0.01 µM,2.5 ± 0.83 µM,6.79 ± 3.05 µM,24.9 ± 4.27 µM,~1500 µM
"{5,6‑carboxyfluorescein}-SRYGLLIKAFSMTAAETARRTREFR-NH2 [Fl–hRyR1(1975–1999)p: hRyR1(1975–1999)p with a 5,6-carboxyfluorescein moiety at the N-terminus]",0.66 ± 0.01 µM,9.21 ± 0.82 µM,12.5 ± 1.95 µM,~850 µM,~650 µM,~7000 µM
